pKd: −log10 of the molar value.
Biological target: recombinant spike glycoprotein RBD from SARS-CoV-2 (BEI Resources NR-52366) (SARS-CoV-2) (UniProt P0DTC2)
Assay: BLI

Sequence of recombinant human GAPDH (glyceraldehyde-3-phosphate dehydrogenase), P04406 1-335 (enzyme; other documents disagree on this pair) (P04406 whole entry): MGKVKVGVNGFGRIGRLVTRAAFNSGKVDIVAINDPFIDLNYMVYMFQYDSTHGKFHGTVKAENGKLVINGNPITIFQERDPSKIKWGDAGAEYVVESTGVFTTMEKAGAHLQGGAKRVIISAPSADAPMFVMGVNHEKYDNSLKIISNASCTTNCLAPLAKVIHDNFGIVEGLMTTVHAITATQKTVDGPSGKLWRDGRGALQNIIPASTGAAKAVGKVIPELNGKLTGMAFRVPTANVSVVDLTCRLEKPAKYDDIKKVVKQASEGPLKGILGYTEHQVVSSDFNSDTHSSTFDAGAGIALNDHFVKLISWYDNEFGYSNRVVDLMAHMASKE

## recombinant human GAPDH (glyceraldehyde-3-phosphate dehydrogenase), P04406 1-335 (enzyme; other documents disagree on this pair)
  pKd: 7.93

From paper PMC10911789
